# Columns and labels:
# [1] = molecular target: recombinant S5aΔVWA (human); experiment: ITC
# [2] = molecular target: recombinant full-length S5a (human) (UniProt P55036); experiment: ITC
# Chain of UniProt P55036 (P55036 whole entry): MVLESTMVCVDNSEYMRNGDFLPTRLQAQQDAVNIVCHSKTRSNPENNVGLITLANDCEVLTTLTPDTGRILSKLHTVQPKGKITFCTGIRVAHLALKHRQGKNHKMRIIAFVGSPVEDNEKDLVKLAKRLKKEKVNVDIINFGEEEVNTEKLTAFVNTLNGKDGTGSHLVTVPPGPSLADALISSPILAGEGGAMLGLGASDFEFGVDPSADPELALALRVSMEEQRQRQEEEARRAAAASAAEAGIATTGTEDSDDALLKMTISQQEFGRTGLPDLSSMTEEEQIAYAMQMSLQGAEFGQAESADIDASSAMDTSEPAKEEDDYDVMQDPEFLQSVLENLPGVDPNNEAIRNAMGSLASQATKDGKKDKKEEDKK
Kd [1] [µM],Kd [2] [µM],Substance
84,–,monoubiquitin (from UniProt P0CG47 1-76) (natural protein)
–,112,monoubiquitin (from UniProt P0CG47 1-76) (natural protein; other documents disagree on this pair)

# Source: paper PMC4263443
